In paper doi:10.1101/2020.08.13.249979 (bioRxiv, 2020):
“And” between values parts separate entries of the source, which are not always exact repeats. Equal values may be shown once.

What was measured:
cryo-EM structure = target: the molecule itself; test: cryo-EM structure
cross-linking = target: the molecule itself; test: cross-linking
negative stain EM = target: the molecule itself; test: negative stain EM

B1: Vipp1/IM30 from Nostoc punctiforme, full-length (amino acids 1-258) (natural protein)
chain: MGLFDRIKRVVSSNLNDLVNKAEDPEKMLEQAILEMQEDLVQLRQGVAQAIAAQKRSEKQYNDAQNEINKWQRNAQLALQKGDENLARQALERKKTYTDTSAALKASLDTQSTQVETLKRNLIQLESKISEAKTKKEMLKARITTAKAQEQLQGMVRGMNTSSAMSAFERMEEKVLMQESRAQALGELAGADLETQFAQLEGGSDVDDELAALKAQMLPPATPVTQAQLPPQQETTPAKSNEVVDAELDSLRKQLDQL
stoichiometry N (cryo-EM structure): 84 subunits and 55 subunits to 119 subunits (2×)

B2: Vipp1_(L86C/L193C) (natural protein)
chain: MGLFDRIKRVVSSNLNDLVNKAEDPEKMLEQAILEMQEDLVQLRQGVAQAIAAQKRSEKQYNDAQNEINKWQRNAQLALQKGDENCARQALERKKTYTDTSAALKASLDTQSTQVETLKRNLIQLESKISEAKTKKEMLKARITTAKAQEQLQGMVRGMNTSSAMSAFERMEEKVLMQESRAQALGELAGADCETQFAQLEGGSDVDDELAALKAQMLPPATPVTQAQLPPQQETTPAKSNEVVDAELDSLRKQLDQL
binding result (cross-linking): binds

B3: Vipp1Δα6_(1-219) (domain or fragment)
chain: MGLFDRIKRVVSSNLNDLVNKAEDPEKMLEQAILEMQEDLVQLRQGVAQAIAAQKRSEKQYNDAQNEINKWQRNAQLALQKGDENLARQALERKKTYTDTSAALKASLDTQSTQVETLKRNLIQLESKISEAKTKKEMLKARITTAKAQEQLQGMVRGMNTSSAMSAFERMEEKVLMQESRAQALGELAGADLETQFAQLEGGSDVDDELAALKAQMLP
binding result (negative stain EM): binds
